According to PMC5923229 (2018):

Target: the molecule itself

B1: H46R/H48Q SOD1 with ebsulphur conjugated at Cys111 (enzyme)
chain: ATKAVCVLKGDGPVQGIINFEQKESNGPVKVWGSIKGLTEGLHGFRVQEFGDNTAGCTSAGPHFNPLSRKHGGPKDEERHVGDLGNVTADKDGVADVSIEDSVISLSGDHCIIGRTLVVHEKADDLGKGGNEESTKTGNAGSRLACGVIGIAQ
modifications: ebsulphur conjugated at Cys111
  Kd: 676 nM
